Assay results: article PMC9122904, “Insights into the client protein release mechanism of the ATP-independent chaperone Spy” (Nature Communications, 2022)

Assays:
Assay in all cases: BLI; Octet RED96; client biotinylated and loaded on streptavidin sensors; Spy or Spy variant in solution at 0.25, 0.5, 1, 1.5 and 2 μM; 40 mM HEPES, 150 mM NaCl, pH 7.5; Kd calculated as koff/kon
Details in all cases: both partners purified
Spy_(27-124) = target: T1, Spy_(27-124) (UniProt P77754 50-147)
T1 construct: source: E. coli BL21 (DE3), purified (Ni-NTA, cation exchange, SEC); not shown: His6, N-terminal, cleaved; SUMO, N-terminal, cleaved
T1 sequence (looked up): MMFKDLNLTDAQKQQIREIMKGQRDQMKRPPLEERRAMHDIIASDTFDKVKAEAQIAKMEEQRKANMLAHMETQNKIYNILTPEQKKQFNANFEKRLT
Procedure, shortened: (§1)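 Client proteins were biotinylated with EZ-link NHS-biotin at a 1:1 molar ratio, loaded onto streptavidin sensors, and measured by biolayer interferometry on an Octet RED96. The loaded sensors were dipped into 40 mM HEPES, 150 mM NaCl, pH 7.5 holding the analyte protein at 0.25, 0.5, 1, 1.5 or 2 μM, then moved to buffer without it. Fitting the wavelength-shift association and dissociation curves in SigmaPlot 12.0 gave the observed association rate and koff, kon was taken from the observed rate plotted against analyte concentration, and Kd was calculated as koff/kon.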

Spy_(29-130) = target: T2, Spy_(29-130) (UniProt P77754 52-153)
T2 construct: Spy chaperone, residues 29-130; source: E. coli BL21 (DE3), purified (Ni-NTA, cation exchange, SEC); not shown: His6, N-terminal, cleaved; SUMO, N-terminal, cleaved
T2 sequence (looked up): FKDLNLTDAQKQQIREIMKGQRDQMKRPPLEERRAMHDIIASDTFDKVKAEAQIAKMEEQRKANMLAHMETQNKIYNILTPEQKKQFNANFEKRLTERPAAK
Procedure, shortened: as §1

Spy_(1-124) = target: T3, Spy_(1-124) (UniProt P77754 24-147)
T3 construct: source: E. coli BL21 (DE3), purified (Ni-NTA, cation exchange, SEC); not shown: His6, N-terminal, cleaved; SUMO, N-terminal, cleaved
T3 sequence (looked up): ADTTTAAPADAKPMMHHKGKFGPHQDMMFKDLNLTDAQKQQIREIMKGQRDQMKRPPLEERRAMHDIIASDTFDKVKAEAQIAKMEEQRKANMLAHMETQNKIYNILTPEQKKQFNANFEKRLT
Procedure, shortened: as §1

Spy_(29-124) = target: T4, Spy_(29-124) (UniProt P77754 52-147)
T4 construct: also called termini-free Spy; source: E. coli BL21 (DE3), purified (Ni-NTA, cation exchange, SEC); not shown: His6, N-terminal, cleaved; SUMO, N-terminal, cleaved
T4 sequence (looked up): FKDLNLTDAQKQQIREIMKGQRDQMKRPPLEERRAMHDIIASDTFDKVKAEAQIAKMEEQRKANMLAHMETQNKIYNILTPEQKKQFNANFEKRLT
Procedure, shortened: as §1

Spy_(29-138) = target: T5, Spy_(29-138) (UniProt P77754 52-161)
T5 construct: source: E. coli BL21 (DE3), purified (Ni-NTA, cation exchange, SEC); not shown: His6, N-terminal, cleaved; SUMO, N-terminal, cleaved
T5 sequence (looked up): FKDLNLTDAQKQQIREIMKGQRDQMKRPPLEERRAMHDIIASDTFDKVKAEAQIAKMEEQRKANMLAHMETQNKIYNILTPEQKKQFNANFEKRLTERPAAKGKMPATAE
Procedure, shortened: as §1

Spy_(21-130) = target: T6, Spy_(21-130) (UniProt P77754 44-153)
T6 construct: Spy chaperone, residues 21-130; source: E. coli BL21 (DE3), purified (Ni-NTA, cation exchange, SEC); not shown: His6, N-terminal, cleaved; SUMO, N-terminal, cleaved
T6 sequence (looked up): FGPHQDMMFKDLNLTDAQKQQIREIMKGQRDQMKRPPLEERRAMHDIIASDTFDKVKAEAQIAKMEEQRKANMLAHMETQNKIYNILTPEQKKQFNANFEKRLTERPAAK
Procedure, shortened: as §1

Spy_(24-130) = target: T7, Spy_(24-130) (UniProt P77754 47-153)
T7 construct: Spy chaperone, residues 24-130; source: E. coli BL21 (DE3), purified (Ni-NTA, cation exchange, SEC); not shown: His6, N-terminal, cleaved; SUMO, N-terminal, cleaved
T7 sequence (looked up): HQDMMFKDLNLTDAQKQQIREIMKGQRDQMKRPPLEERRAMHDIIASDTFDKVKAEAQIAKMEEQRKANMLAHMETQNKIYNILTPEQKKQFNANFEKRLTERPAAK
Procedure, shortened: as §1

Spy_(27-130) = target: T8, Spy_(27-130) (UniProt P77754 50-153)
T8 construct: Spy chaperone, residues 27-130; source: E. coli BL21 (DE3), purified (Ni-NTA, cation exchange, SEC); not shown: His6, N-terminal, cleaved; SUMO, N-terminal, cleaved
T8 sequence (looked up): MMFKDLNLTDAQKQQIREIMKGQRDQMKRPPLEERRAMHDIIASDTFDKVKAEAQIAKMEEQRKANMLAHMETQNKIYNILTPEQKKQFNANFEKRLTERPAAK
Procedure, shortened: as §1

B1: Im7 H40W L53A I54A (natural protein)
chain: MELKNSISDYTEAEFVQLLKEIEKENVAATDDVLDVLLEWFVKITEHPDGTDAAYYPSDNRDDSPEGIVKEIKEWRAANGKPGFKQG
modifications: biotin (EZ-link NHS-biotin, 1:1 molar ratio of biotin to protein)
notes: Im7 (colicin E7 immunity protein) with H40W L53A I54A; Spy was made with an N-terminal His6-SUMO tag that was cleaved; also called Im7AAW; partially folded client; source: purified by a similar procedure to Spy
kon (Spy_(27-124)): 314000 M⁻¹ s⁻¹
kon (Spy_(29-130)): 283000 M⁻¹ s⁻¹
kon (Spy_(1-124)): 203000 M⁻¹ s⁻¹
kon (Spy_(29-124)): 273000 M⁻¹ s⁻¹
kon (Spy_(29-138)): 286000 M⁻¹ s⁻¹
kon (Spy_(21-130)): 187000 M⁻¹ s⁻¹
kon (Spy_(24-130)): 210000 M⁻¹ s⁻¹
kon (Spy_(27-130)): 313000 M⁻¹ s⁻¹
